Laboratory results published in patent US20260008847A1 (ELPISCIENCE SUZHOU BIOPHARMA, published 2026).
Numbering of substitutions follows the chain as printed. Names may count otherwise. Each block holds one molecule with its values, some of them ahead of it.

Assays:
[1] = molecular target: 6×His-tagged human LILRB2 ECD recombinant protein (human) (UniProt Q8N423); assay: ELISA: plate coated with 6xHis-tagged human LILRB2 ECD, antibody at 0.5 ug/mL, HRP detection antibody; mean OD450 printed over the bar
6×His-tagged human LILRB2 ECD recombinant protein (human), sequence (Q8N423 22-458 limits assumed): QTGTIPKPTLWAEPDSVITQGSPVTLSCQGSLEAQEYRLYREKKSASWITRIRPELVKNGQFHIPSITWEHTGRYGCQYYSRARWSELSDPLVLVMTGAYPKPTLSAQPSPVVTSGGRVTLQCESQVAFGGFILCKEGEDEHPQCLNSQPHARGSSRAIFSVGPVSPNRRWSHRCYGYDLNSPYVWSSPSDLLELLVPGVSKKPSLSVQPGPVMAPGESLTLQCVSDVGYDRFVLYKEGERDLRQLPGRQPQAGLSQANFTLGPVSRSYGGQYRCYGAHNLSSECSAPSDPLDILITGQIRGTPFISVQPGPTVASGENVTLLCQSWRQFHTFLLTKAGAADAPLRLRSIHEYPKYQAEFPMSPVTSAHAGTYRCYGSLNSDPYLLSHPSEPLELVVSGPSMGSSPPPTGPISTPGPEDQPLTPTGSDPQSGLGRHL

[2] = molecular target: Human LILRA1 ECD recombinant protein with 6×His-tag (human) (UniProt O75019); assay: ELISA: plate coated with LILRA1 ECD recombinant protein, antibody at 0.5 ug/mL (method of example 3.2.1); mean OD450 printed over the bar
Human LILRA1 ECD recombinant protein with 6×His-tag (human), sequence (O75019 17-461 limits assumed): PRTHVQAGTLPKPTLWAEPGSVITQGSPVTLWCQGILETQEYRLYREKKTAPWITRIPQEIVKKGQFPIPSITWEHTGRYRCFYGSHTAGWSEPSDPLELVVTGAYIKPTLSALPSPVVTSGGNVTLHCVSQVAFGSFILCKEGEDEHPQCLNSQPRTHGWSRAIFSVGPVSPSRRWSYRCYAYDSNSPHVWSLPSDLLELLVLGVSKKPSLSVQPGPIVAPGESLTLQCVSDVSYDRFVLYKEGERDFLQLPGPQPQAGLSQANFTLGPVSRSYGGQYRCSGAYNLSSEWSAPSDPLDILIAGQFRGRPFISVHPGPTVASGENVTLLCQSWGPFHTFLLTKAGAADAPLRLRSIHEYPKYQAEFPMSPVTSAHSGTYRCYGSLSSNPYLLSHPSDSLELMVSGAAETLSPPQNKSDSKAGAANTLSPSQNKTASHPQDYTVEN

[3] = molecular target: Human LILRA2 ECD recombinant protein with His-tag (human) (UniProt Q8N149); assay: ELISA: plate coated with LILRA2 ECD recombinant protein, antibody at 0.5 ug/mL (method of example 3.2.1); mean OD450 printed over the bar [continued) B]
Human LILRA2 ECD recombinant protein with His-tag (human), sequence (Q8N149 24-449 limits assumed): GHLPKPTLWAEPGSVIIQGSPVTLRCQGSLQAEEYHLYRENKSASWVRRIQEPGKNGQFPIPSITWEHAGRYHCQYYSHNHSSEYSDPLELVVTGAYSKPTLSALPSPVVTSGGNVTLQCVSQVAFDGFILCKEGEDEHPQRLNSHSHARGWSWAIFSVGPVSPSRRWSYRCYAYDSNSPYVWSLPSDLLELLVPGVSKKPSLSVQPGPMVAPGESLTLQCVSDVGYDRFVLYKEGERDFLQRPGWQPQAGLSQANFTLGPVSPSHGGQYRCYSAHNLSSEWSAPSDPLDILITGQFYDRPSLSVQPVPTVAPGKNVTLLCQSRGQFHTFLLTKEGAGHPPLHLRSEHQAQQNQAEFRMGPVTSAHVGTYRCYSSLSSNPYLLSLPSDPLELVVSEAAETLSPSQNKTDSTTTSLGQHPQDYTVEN

[4] = molecular target: Human LILRA3 ECD recombinant protein with 6×His-tag (human) (UniProt Q8N6C8); assay: ELISA: plate coated with LILRA3 ECD recombinant protein, antibody at 0.5 ug/mL (method of example 3.2.1); mean OD450 printed over the bar [continued) C]
Human LILRA3 ECD recombinant protein with 6×His-tag (human), sequence (Q8N6C8 24-439 limits assumed, form in doubt): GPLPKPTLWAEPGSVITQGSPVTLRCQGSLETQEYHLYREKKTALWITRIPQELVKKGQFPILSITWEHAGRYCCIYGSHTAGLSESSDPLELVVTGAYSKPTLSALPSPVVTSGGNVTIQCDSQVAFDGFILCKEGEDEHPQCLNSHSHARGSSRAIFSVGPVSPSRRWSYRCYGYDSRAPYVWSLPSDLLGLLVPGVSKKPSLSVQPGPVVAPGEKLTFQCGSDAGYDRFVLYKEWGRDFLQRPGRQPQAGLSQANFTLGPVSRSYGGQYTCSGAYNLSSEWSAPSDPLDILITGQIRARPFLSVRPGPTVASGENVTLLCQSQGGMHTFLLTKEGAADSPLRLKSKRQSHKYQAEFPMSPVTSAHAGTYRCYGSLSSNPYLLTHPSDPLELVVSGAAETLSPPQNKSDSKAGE

[5] = molecular target: Human LILRA4 ECD recombinant protein with 6×His-tag (human) (UniProt P59901); assay: ELISA: plate coated with LILRA4 ECD recombinant protein, antibody at 0.5 ug/mL (method of example 3.2.1); mean OD450 printed over the bar [continued) D]
Human LILRA4 ECD recombinant protein with 6×His-tag (human), sequence (P59901 24-446 limits assumed): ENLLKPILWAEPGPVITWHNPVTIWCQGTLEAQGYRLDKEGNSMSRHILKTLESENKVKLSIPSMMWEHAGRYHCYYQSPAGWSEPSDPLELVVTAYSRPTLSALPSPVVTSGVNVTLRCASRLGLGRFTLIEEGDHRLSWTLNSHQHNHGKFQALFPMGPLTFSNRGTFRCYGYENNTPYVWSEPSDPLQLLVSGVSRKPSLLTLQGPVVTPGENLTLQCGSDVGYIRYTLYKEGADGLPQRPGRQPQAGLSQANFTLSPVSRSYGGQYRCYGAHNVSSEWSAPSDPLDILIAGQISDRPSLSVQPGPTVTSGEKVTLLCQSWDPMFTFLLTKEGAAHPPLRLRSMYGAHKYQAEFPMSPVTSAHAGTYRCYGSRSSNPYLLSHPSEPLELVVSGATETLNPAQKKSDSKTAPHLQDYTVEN

[6] = molecular target: Human LILRA5 ECD recombinant protein with 6×His-tag (human) (UniProt A6NI73); assay: ELISA: plate coated with LILRA5 ECD recombinant protein, antibody at 0.5 ug/mL (method of example 3.2.1); mean OD450 printed over the bar [continued) E]
Human LILRA5 ECD recombinant protein with 6×His-tag (human), sequence (A6NI73 42-268 limits assumed, form in doubt): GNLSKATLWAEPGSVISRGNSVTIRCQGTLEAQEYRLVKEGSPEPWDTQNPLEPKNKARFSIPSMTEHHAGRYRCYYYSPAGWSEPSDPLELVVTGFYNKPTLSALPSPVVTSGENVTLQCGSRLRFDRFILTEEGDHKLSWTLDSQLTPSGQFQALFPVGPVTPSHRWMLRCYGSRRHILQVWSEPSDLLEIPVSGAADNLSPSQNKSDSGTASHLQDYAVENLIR

[7] = molecular target: Human LILRB1 ECD recombinant protein with 6×His-tag (human) (UniProt Q8NHL6); assay: ELISA: plate coated with LILRB1 ECD recombinant protein, antibody at 0.5 ug/mL (method of example 3.2.1); mean OD450 printed over the bar [continued) F]
Human LILRB1 ECD recombinant protein with 6×His-tag (human), sequence (Q8NHL6 24-458 limits assumed): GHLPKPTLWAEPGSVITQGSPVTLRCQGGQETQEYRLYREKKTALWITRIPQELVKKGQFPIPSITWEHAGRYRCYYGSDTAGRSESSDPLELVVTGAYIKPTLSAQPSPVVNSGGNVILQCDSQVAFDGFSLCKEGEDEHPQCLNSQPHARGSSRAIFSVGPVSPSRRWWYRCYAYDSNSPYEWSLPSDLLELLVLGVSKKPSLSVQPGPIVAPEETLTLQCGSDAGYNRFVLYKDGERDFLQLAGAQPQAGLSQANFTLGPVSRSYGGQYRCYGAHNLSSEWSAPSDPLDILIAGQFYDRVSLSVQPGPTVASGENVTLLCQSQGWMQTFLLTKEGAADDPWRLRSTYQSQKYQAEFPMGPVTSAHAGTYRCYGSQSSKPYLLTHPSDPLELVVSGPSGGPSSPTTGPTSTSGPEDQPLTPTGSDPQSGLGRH

[8] = molecular target: Human LILRB3 ECD recombinant protein with 6×His-tag (human) (UniProt O75022); assay: ELISA: plate coated with LILRB3 ECD recombinant protein, antibody at 0.5 ug/mL (method of example 3.2.1); mean OD450 printed over the bar [continued) G]
[9] = molecular target: Human LILRB4 ECD recombinant protein with 6×His-tag (human) (UniProt Q8NHJ6); assay: ELISA: plate coated with LILRB4 ECD recombinant protein, antibody at 0.5 ug/mL (method of example 3.2.1); mean OD450 printed over the bar [continued) H]
[10] = molecular target: Human LILRB5 ECD recombinant protein with 6×His-tag (human) (UniProt O75023); assay: ELISA: plate coated with LILRB5 ECD recombinant protein, antibody at 0.5 ug/mL (method of example 3.2.1); mean OD450 printed over the bar [continued) I]
Human LILRB5 ECD recombinant protein with 6×His-tag (human), sequence (O75023 24-458 limits assumed): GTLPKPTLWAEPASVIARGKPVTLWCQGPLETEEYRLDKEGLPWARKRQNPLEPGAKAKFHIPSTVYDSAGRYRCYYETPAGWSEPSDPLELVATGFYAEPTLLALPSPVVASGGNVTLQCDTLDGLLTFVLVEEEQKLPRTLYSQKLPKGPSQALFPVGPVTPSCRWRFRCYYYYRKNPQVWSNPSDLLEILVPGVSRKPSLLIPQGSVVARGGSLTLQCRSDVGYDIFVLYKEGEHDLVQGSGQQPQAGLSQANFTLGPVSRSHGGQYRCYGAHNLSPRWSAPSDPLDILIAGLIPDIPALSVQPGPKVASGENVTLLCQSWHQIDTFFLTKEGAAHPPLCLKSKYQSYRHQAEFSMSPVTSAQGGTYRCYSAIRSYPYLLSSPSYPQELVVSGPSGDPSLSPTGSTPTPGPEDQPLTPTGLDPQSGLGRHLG

[11] = molecular target: T1, 6×His-tagged human LILRB2 ECD recombinant protein (human, UniProt Q8N423 22-458, limits assumed); assay: Bio-Layer Interferometry, hybridoma antibody on human LILRB2
T1 construct: Bought protein; not shown: 6×His-tag
T1 sequence (Q8N423 22-458 limits assumed): as the sequence (Q8N423 22-458 limits assumed) above

[12] = molecular target: T1, 6×His-tagged human LILRB2 ECD …; assay: Octet, 1:1 model
[13] = molecular target: T2, Human LILRB2 stably expressed on EL4 cells (EL4/LILRB2) (human, UniProt Q8N423 22-597); assay: FACS on EL4/LILRB2 cells
T2 construct: also called EL4-LILRB2 cells; cell membrane human LILRB2
T2 sequence (Q8N423 22-597 limits assumed): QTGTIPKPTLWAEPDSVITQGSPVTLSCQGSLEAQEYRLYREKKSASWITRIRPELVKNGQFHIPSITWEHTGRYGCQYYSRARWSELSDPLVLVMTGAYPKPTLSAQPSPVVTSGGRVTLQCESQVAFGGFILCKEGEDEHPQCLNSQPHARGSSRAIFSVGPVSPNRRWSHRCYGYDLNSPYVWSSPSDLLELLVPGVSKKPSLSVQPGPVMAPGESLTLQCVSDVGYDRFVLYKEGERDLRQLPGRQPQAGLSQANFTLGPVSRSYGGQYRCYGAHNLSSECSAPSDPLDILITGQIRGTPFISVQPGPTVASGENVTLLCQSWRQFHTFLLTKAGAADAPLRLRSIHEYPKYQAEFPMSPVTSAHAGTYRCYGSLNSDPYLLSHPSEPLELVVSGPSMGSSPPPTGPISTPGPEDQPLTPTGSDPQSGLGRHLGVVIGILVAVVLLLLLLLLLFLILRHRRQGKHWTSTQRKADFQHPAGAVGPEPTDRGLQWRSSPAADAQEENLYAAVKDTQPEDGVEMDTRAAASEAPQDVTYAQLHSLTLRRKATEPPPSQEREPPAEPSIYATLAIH

[14] = molecular target: T2, Human LILRB2 stably expressed on EL4 …; assay: competitive FACS, blockade of HLA-G binding to LILRB2 on cells
Protocol: The blocking activities were determined by quantitating the blockade of the ligands binding to EL4/LILRB2 cells.

[15] = molecular target: T1, 6×His-tagged human LILRB2 ECD …; assay: Octet, 1:1 model; column printed as 'kd (1/s)', heads of c4 and c5 are swapped
[16] = molecular target: T1, 6×His-tagged human LILRB2 ECD …; assay: Octet, 1:1 model; column printed as 'ka (1/Ms)', heads of c4 and c5 are swapped
[17] = molecular target: T1, 6×His-tagged human LILRB2 ECD …; assay: Biacore, 1:1 model
[18] = molecular target: T1, 6×His-tagged human LILRB2 ECD …; assay: Biacore, 1:1 model; column printed as 'kd (1/s)', heads of c4 and c5 are swapped
[19] = molecular target: T1, 6×His-tagged human LILRB2 ECD …; assay: Biacore, 1:1 model; column printed as 'ka (1/Ms)', heads of c4 and c5 are swapped

Kd [11]: 1.35 nM
koff [11]: 0.00139 s⁻¹
kon [11]: 1.04e+06 M⁻¹ s⁻¹
B1: monoclonal antibody secreted by hybridoma clone 8G2F10 (antibody, V domains shown)
VH: QVQLQQSGAELAKPGASVKLSCKASGYTFTSYWMYWVKQRPGQGLEWIGHINPSSGYTKYNQKFKDKATLTADKSSSTAYMQLSSLTYEDSAVYYCARDPNWDNYWGQGTTLTVSS
VL: DIVMTQSHKFMSTSVGDRVSITCKASQDVSIAVAWYQQKPGQSPKLLIYSASYRYTGVPDRFTGSGSGTDFTFTISSVQAEDLAVYYCQQHYSTPYTFGGGTKLEIK
notes: Mouse hybridoma antibody

Kd [17]: 1.71 nM
IC50 [14]: 0.19 nM
TOP Blocking (%) [14]: 100%
kon [18]: 2.21e+06 M⁻¹ s⁻¹
koff [19]: 0.00378 s⁻¹
B3: hu043.08 (antibody, V domains shown)
VH: QVQLVQSGAEVKKPGASVKVSCKASGYTFTSYWMYWVRQAPGQGLEWIGHINPSSGYTKYNQKFKDKATLTADKSTSTAYMELSSLRSEDTAVYYCARDPNWDNYWGQGTTLTVSS
VL: DIQMTQSPSSMSASVGDRVTITCKASQDVSIAVAWYQQKPGKAPKLLIYSASYRYTGVPSRFSGSGSGTDFTFTISSVQPEDIATYYCQQHYSTPYTFGGGTKLEIK
notes: Humanized human IgG4 antibody with S228P in the constant region; also called hu043VH10 / hu043VL1

Kd [12]: 3.9 nM
EC50 [13]: 0.42 nM
TOP MFI [13]: 45100 MFI
IC50 [14]: 0.09 nM
TOP Blocking (%) [14]: 100%
kon [15]: 501000 M⁻¹ s⁻¹
koff [16]: 0.00199 s⁻¹
B5: hu043.05 (antibody, V domains shown)
VH: B3 VH with K67R, A68V, L70M, K74T, A79V, L112V
VL: B3 VL with M11L, V78L
notes: Humanized human IgG4 antibody with S228P in the constant region; also called hu043VH7 / hu043VL2

Kd [17]: 1.68 nM
IC50 [14]: 0.19 nM
TOP Blocking (%) [14]: 100%
kon [18]: 2.25e+06 M⁻¹ s⁻¹
koff [19]: 0.00379 s⁻¹
B6: hu043.07 (antibody, V domains shown)
VH: B3 VH with L112V
VL: B3 VL
notes: Humanized human IgG4 antibody with S228P in the constant region; also called hu043VH9 / hu043VL1

Kd [12]: 3.63 nM
EC50 [13]: 0.4 nM
TOP MFI [13]: 45700 MFI
IC50 [14]: 0.11 nM
TOP Blocking (%) [14]: 100%
kon [15]: 512000 M⁻¹ s⁻¹
koff [16]: 0.00186 s⁻¹
B9: hu043.06 (antibody, V domains shown)
VH: B3 VH with V5Q, V20L, A40R, K67R, K74T, L112V
VL: B3 VL with M11L, V78L
notes: Humanized human IgG4 antibody with S228P in the constant region; also called hu043VH8 / hu043VL2

The remaining lines, values behind:

Molecule: hIgG4 iso (antibody)
OD450 [1]: 0.08
OD450 [2]: 0.15
OD450 [3]: 0.07
OD450 [4]: 0.08
OD450 [5]: 0.16
OD450 [6]: 0.08
OD450 [7]: 0.08
OD450 [8]: 0.08
OD450 [9]: 0.14
OD450 [10]: 0.08

B2: hu043.04 (antibody, V domains shown)
VH: B3 VH with K67R, K74T, L112V
VL: B3 VL with M11L, V78L
notes: Humanized human IgG4 antibody with S228P in the constant region; also called hu043VH6 / hu043VL2
Kd [12]: 3.78 nM
EC50 [13]: 0.43 nM
TOP MFI [13]: 45000 MFI
IC50 [14]: 0.11 nM
TOP Blocking (%) [14]: 100%
kon [15]: 488000 M⁻¹ s⁻¹
koff [16]: 0.00185 s⁻¹

B4: hu043.03 (antibody, V domains shown)
VH: B3 VH with V5Q, V20L, A40R, K67R, K74T, L112V
VL: B3 VL with Q3V, M11L, T20S, S60D, V78L
notes: Humanized human IgG4 antibody with S228P in the constant region; also called hu043VH8 / hu043VL4
Kd [12]: 5.22 nM
EC50 [13]: 0.41 nM
TOP MFI [13]: 46300 MFI
IC50 [14]: 0.1 nM
TOP Blocking (%) [14]: 100%
kon [15]: 466000 M⁻¹ s⁻¹
koff [16]: 0.00243 s⁻¹

B7: hu043.02 (antibody, V domains shown)
VH: B3 VH with K67R, A68V, L70M, K74T, A79V, L112V
VL: B3 VL with Q3V, M11L, T20S, S60D, V78L
notes: Humanized human IgG4 antibody with S228P in the constant region; also called hu043VH7 / hu043VL4
Kd [12]: 3.57 nM
EC50 [13]: 0.35 nM
TOP MFI [13]: 45700 MFI
IC50 [14]: 0.1 nM
TOP Blocking (%) [14]: 100%
kon [15]: 517000 M⁻¹ s⁻¹
koff [16]: 0.00184 s⁻¹

B8: hu043.01 (antibody, V domains shown)
VH: B3 VH with K67R, K74T, L112V
VL: B3 VL with Q3V, M11L, T20S, S60D, V78L
notes: Humanized human IgG4 antibody with S228P in the constant region; also called hu043VH6 / hu043VL4
Kd [12]: 3.19 nM
EC50 [13]: 0.42 nM
TOP MFI [13]: 45800 MFI
IC50 [14]: 0.11 nM
TOP Blocking (%) [14]: 100%
kon [15]: 516000 M⁻¹ s⁻¹
koff [16]: 0.00164 s⁻¹
